Blank lines part the entries; values can stand above or below the compound they belong to.
Experiments:
[1] = biological target: T1, human GUCY2C (Homo sapiens, UniProt P25092); assay: Ser40 phosphorylation of Th in HEK cells co-transfected with Th and GUCY2C (western blotting, ratio P-Ser40/Total Th); format: cell-based; conditions: guanylin 10 μM, 1 hour; for P-Ser40 levels (Fold Change = ratio P-Ser40/Total Th): HEK cells co-transfected with Th and GUCY2C, uroguanylin 1 μM, p<0.01
T1 construct: expressed in transfected cells; host or cells: HEK cells
T1 sequence (P25092 24-1073): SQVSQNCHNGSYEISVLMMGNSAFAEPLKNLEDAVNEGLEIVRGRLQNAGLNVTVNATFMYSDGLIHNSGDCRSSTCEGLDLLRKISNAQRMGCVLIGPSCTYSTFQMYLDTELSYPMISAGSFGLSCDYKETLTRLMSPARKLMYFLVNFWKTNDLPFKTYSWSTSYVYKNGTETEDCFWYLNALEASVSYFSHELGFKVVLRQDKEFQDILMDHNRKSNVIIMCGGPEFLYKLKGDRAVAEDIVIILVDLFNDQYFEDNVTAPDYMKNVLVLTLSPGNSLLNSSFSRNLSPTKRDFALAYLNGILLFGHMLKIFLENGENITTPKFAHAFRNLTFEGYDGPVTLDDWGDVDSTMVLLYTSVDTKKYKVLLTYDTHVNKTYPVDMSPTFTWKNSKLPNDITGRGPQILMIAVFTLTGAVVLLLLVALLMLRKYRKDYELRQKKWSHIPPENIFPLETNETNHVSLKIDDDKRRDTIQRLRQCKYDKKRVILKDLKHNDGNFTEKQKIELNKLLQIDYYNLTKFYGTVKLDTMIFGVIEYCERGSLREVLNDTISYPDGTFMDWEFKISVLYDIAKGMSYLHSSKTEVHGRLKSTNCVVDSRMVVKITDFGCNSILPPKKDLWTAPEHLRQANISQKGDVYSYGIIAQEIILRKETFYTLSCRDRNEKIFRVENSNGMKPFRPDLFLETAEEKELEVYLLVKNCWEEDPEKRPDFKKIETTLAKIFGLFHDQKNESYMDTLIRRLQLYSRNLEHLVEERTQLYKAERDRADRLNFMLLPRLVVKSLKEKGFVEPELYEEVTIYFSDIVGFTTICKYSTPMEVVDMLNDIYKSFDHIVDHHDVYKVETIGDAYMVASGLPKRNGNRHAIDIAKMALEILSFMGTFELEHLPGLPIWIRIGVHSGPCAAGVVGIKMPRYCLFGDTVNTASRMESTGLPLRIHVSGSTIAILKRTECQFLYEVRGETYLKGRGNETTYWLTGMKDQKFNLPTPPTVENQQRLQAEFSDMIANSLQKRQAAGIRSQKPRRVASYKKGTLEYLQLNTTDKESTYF
Experimental: FIG. 4. GUCY2C activation increases Ser40 phosphorylation. Immunocytochemistry images (A) and western blotting analysis (B) of HEK cultures transfected with Th or Th+GUCY2C. (C) Co-transfected HEK cells were treated with guanylin (G) or uroguanylin (UroG) and changes in Ser40 phosphorylation were studied. The graph represents the statistical analysis (n=3 for Control, n=6 for Guanylin, n=9 for Uroguanylin; Mean±SEM). Unpaired Student's t-test (p-value: **<0.01).
(§1) FIG. 5. The increase in Ser40 phosphorylation is proportional to the produced amount of cGMP upon GUCY2C stimulation. (A) HEK cultures were treated with guanylin, in the presence or absence of IBMX. […] Unpaired Student's t-test (p-values: ****<0.0001, **<0.01, *<0.05). (B) HEK cells were co-transfected with Th and either the wt GUCY2C or a gain-of-function mutant (R792S). Ser40 phosphorylation was studied following guanylin treatment (G). […] Unpaired Student's t-test (p-values: ***<0.001, **<0.01).
(§2) HEK cells were maintained in 100-mm Petri dishes and grown in DMEM medium supplemented with L-glutamine, penicillin-streptomycin (Pen&Strep) and 10% heat-inactivated fetal bovine serum (HIFBS). Growing conditions were 37° C. and 5% CO2. For every-other-day passages, HEK cultures were split at a 1:3 dilution. From Friday to Monday, the split proportion was doubled for all cell lines. For passaging, cultures were rinsed with PBS and incubated with 1 mL of trypsin during 5 minutes. Cells were resuspended in growth medium and finally split to the proper dilution. The experiments were performed in 12-well plates. For immunocytochemistry analysis, sterile 18-mm coverslips were added prior to the plating. 500 μL of cell resuspension was seeded in each well. If experiments were to be performed 48 hours after the plate preparation, 1:5 was the seeding ratio for HEK cells. When the experiments took place 96 hours post-plating, 1:7 was the working dilution for HEK cells. Unless otherwise stated, HEK cultures were processed 96 hours post-plating.
HEK cells were transfected using the calcium-phosphate method. […]

[2] = tested on: Th Ser40 phosphorylation (cGMP-derived signaling) in HEK cells; assay: Ser40 phosphorylation of Th in HEK cells transfected with Th (western blotting, ratio P-Ser40/Total Th); format: cell-based, mouse Th in HEK cells; conditions: 500 μM, 1 hour, 48 hours post-plating, n=6, p<0.0001
Experimental: FIG. 3. HEK cells are a suitable model to study GUCY2C-induced Ser40 phosphorylation. (A) RT-qPCR data from intact HEK extracts. Input material was 10 ng of total RNA. Cp corresponds to the cycle number in which the expression starts to be considered positive. (-) represents the water control, which is negative in every case. (B) HEK cultures were transfected with Th and treated with a cGMP analogue 48 hours post-plating. Changes in Ser40 phosphorylation were studied. The graph represents the statistical analysis (n=6; Mean±SEM). Unpaired Student's t-test (p-value: ****<0.0001). Hereon, ‘Fold Change’ corresponds to the ratio P-Ser40/Total Th.
as §2, with “If experiments were to be performed 48 hours after the plate preparation, 1:5 was the seeding ratio for HEK cells. When the experiments took place 96 hours post-plating, 1:7 was the working dilution for HEK cells. Unless otherwise stated, HEK cultures were processed 96 hours post-plating.” left out

[3] = biological target: T2, GUCY2C R792S mutant (Homo sapiens, UniProt P25092, R792S); assay: Ser40 phosphorylation in HEK cells co-transfected with Th and GUCY2C gain-of-function mutant R792S versus wt; format: cell-based; conditions: HEK cells co-transfected with Th and wt or R792S GUCY2C; FIG. 5B
T2 construct: expressed in transfected cells; host or cells: HEK cells
T2 sequence (P25092 24-1073 R792S): as the sequence (P25092 24-1073) above, with R769S counted along it
Experimental: as §1
HEK cells were transfected using the calcium-phosphate method. 12-well plates were refreshed with 500 μL of growth medium before transfection. […] The plasmid mixture was taken into a final concentration of 250 mM CaCl2 in a total volume of 110 μL. A complementary tube was filled with 110 μL of HEPES-buffered saline 2× (HEBS 2×: 1.5 mM Na2HPO4, 50 mM HEPES pH 7.05, 280 mM NaCl). […]
Up to 35 μL of sample was loaded in each slot and run in the presence of tris-glycine buffer and 0.1% SDS. […] After additional washings during 1 hour, blots were exposed to an enhanced chemiluminescence solution and the signal was detected using an Odyssey imager (LI-COR). […] For graph quantifications, ‘Fold Change’ represents the ratio P-Ser40/Total Th. Statistical comparisons between pair of groups correspond to unpaired Student's t-tests, as calculated with GraphPad Prism. […]

[4] = injected into the blood stream; cited from earlier work

Compound: CC(C)Cn1c(=O)n(C)c(=O)c2[nH]cnc21 [IBMX, 3-isobutyl-1-methylxanthine]
Ser40 phosphorylation with PDE inhibition ([1]; HEK cultures, IBMX 100 μM, FIG. 5A): potentiated the increase in Ser40 phosphorylation as compared to guanylin administration

Compound: Nc1nc2c(nc(Br)n2[C@@H]2O[C@@H]3COP(=O)(O)O[C@H]3[C@H]2O)c(=O)[nH]1 [8-Bromo-cGMP]
P-Ser40 levels (Fold Change = ratio P-Ser40/Total Th) [2]: small but significant increase in P-Ser40 levels

P-Ser40 levels (Fold Change = ratio P-Ser40/Total Th) [1]: increase P-Ser40 levels
Compound: uroguanylin: natural agonistic ligand of GUCY2C; a 16 amino acid peptide (NDDCELCVNVACTGCL)

boost in Ser40 phosphorylation upon guanylin treatment, R792S mutant compared to wt receptor [3]: 1.5 fold | P-Ser40 levels (Fold Change = ratio P-Ser40/Total Th) [1]: increase P-Ser40 levels
Compound: guanylin: natural agonistic ligand of GUCY2C; a 15 amino acid polypeptide (PGTCEICAYAACTGC)
passage of the blood-brain barrier [4]: rapidly enters the brain
